Data on seven molecules can be found in patent publication US20260234234A1 (QILU PUGET SOUND BIOTHERAPEUTICS, published 2026).

The target in assay [1] is hTSLP antigen, version not stated (human, UniProt Q969D9 29-159, limits assumed). Nature of the assay: cell-based or functional assay.
Assay [2] deals with T1, Avitag_c-MYC_His6_hTSLP QB11631 with mutations of R127A + R130S (human).
T1 construct: Substitutions and tags already in the entry; also called hTSLP (R127A+R130S)
Briefly: SPR (Biacore), hTSLP (R127A+R130S) antigen.

In assay [3] the target is Avitag_c-MYC_His6_hTSLP (wild type) QB11630 (human). Briefly: cell-based or functional assay.
Assay [4] addresses T2, Avitag_c-MYC_His6_hTSLP QB11033 with deletion of 126KRRKR130 (human).
T2 chain: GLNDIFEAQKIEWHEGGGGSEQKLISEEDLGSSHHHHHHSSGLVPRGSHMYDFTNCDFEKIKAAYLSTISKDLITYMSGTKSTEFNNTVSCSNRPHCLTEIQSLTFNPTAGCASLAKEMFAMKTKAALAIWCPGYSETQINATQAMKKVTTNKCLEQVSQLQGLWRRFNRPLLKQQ
Briefly: cell-based or functional assay.

For assay [5], the target named is T1, Avitag_c-MYC_His6_hTSLP QB11631 with …. Nature of the assay: cell-based or functional assay.
Assay [6] concerns the target T3, Avitag_FLAG_His6_cyTSLP QB10974 with deletion of 126KRRKR130 (cynomolgus monkey).
T3 chain: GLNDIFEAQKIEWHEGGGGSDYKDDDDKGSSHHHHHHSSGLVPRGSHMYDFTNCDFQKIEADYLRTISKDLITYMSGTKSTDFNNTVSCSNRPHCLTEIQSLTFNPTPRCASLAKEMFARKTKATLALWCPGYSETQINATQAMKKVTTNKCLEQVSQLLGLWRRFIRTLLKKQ
Nature of the assay: cell-based or functional assay.

The target in assay [7] is T4, Avitag_FLAG_His6_cyTSLP QB11633 with mutations of R127A + R130S (cynomolgus monkey).
T4 chain: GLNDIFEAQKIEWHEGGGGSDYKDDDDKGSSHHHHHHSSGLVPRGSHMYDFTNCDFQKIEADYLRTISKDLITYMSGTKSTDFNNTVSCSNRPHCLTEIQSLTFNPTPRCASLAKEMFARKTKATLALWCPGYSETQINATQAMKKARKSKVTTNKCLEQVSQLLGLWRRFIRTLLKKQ
Briefly: cell-based or functional assay.

Assay [8] deals with T5, Avitag_FLAG_His6_cyTSLP QB11632 (wild type) (cynomolgus monkey).
T5 chain: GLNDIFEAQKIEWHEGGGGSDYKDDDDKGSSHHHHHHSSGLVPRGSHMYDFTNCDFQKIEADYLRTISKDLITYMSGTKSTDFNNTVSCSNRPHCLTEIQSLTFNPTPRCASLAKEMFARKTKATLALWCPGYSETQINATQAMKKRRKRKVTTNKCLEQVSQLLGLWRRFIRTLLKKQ
Briefly: cell-based or functional assay.

Assay [9] addresses T1, Avitag_c-MYC_His6_hTSLP QB11631 with …. Nature of the assay: SPR (Biacore).
Assay [10] addresses Avitag_c-MYC_His6_hTSLP (wild type) QB11630 (human). Nature of the assay: cell-based or functional assay. The source holds these as a separate data set.
The target in assay [11] is T2, Avitag_c-MYC_His6_hTSLP QB11033 with …. Briefly: cell-based or functional assay.
For assay [12], the target named is T1, Avitag_c-MYC_His6_hTSLP QB11631 with …. Briefly: cell-based or functional assay. The source holds these as a separate data set.
In assay [13] the target is T3, Avitag_FLAG_His6_cyTSLP QB10974 with …. Briefly: cell-based or functional assay.
The target of assay [14] is T4, Avitag_FLAG_His6_cyTSLP QB11633 with …. Briefly: cell-based or functional assay.
Assay [15] has as its target T5, Avitag_FLAG_His6_cyTSLP QB11632 (wild …). Nature of the assay: cell-based or functional assay.
Assay [16] addresses T6, His6-tagged cyIL-33 (Ser112-Ile270), QB10976 (cynomolgus monkey).
T6 chain: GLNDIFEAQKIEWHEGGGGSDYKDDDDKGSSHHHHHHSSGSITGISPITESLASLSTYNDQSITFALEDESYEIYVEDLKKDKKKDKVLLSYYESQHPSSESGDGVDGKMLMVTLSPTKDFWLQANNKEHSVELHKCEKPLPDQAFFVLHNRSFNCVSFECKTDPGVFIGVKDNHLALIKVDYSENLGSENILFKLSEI
Nature of the assay: cell-based or functional assay.

In assay [17] the target is T7, hIL-33 used in the cell-based assays of Example 13 (human, UniProt O95760 112-270).
T7 sequence (looked up): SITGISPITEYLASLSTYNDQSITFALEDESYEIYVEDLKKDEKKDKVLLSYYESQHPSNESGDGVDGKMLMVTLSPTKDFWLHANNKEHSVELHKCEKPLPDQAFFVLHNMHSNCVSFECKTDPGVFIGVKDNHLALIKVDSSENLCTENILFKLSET
Briefly: cell-based or functional assay.

Assay [18] deals with T6, His6-tagged cyIL-33 (Ser112-Ile270), …. Nature of the assay: SPR, cyIL-33 analyte. (Surface plasmon resonance follows binding to a sensor surface in real time, without labels.)
Assay [19] has as its target T8, Avitag_c-MYC_His6-tagged hIL-33 (Ser112-Thr270), QB10975 (human).
T8 construct: Entry includes N-terminal Avitag, c-MYC and His6 tags; reduced with DTT to the active form; also called active hIL-33; reduced hIL-33
T8 chain: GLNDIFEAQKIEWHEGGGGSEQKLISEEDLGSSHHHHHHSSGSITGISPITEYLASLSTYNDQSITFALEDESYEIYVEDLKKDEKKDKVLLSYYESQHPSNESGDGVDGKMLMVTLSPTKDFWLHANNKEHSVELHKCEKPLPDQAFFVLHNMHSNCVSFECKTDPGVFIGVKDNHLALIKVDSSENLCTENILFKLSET
Nature of the assay: SPR, captured antibody, hIL-33 analyte, 37 C, 1:1 fit.

Assay [20] deals with T6, His6-tagged cyIL-33 (Ser112-Ile270), …. Briefly: SPR, captured antibody, cyIL-33 analyte, 25 C, 1:1 fit.
Assay [21] concerns the target T8, Avitag_c-MYC_His6-tagged hIL-33 …. Nature of the assay: SPR competition, antibody titrated against 10 nM hIL-33, over immobilised hST2-Fc.

Read-outs that look alike come from different tables or passages of the source.

B1: rabbit anti-hTSLP monoclonal antibody clone 135F1 (antibody, V domains shown)
VH: QEQLEESGGDLVKPEGSLTLTCKASGFDFSSYWISWVRQAPGKRPEWIACIDSDIDSADYASWAKGRFTMSRTSSTTVTLQMTSLTAADTATYFCVRNLGLWGPGTLVTVSS
VL: AQVLTQTASPVSAAVGGTVTINCQSSQNVYDKDALAWYQHKPGQRPKLLIYEASKLASGVPSRFSGSGAGTQFTLTISGVQCDDAATYYCAGTFIDNIYTFGGGTEVVVKG
For the molecule B1, the “IC50, inhibition of hTSLP-induced CCL17 release from human monocytes” value in [1] worked out at 4240 pM.

B2: anti-hTSLP antibody QB11341, humanized clone 135F1 (antibody, human IgG4 S228P, kappa, V domains shown)
VH: EVQLVESGGGLVQPGGSLRLSCAASGFDFSSYWISWVRQAPGKGPEWIASIDIDIDIADYASWAKGRFTISRDNSKNTLYLQMNSLRAEDTAVYYCVRNLGLWGPGTLVTVSS
VL: DIQMTQSPSSLSASVGDRVTITCQSSQNVYDKDALAWYQHKPGKRPKLLIYEASKLASGVPSRFSGSGSGTHFTLTISSLQPEDAATYYCAGTFIDNIYTFGGGTKVEIKR
notes: also called QB1341; top clone
As usually defined, the Kd is a measure of binding affinity in units of concentration. A word on the koff: it is a measure of how fast the partners let go of each other. What is called kon is the rate constant with which the complex forms. For B2, the dissociation constant (Kd) in [2] came out at 1760 pM. The koff in assay [2] was found to be 0.00148 s⁻¹. Moreover, the kon in assay [2] was 842000 M⁻¹ s⁻¹. The “IC50 (nM) for inhibition of CCL17 secretion” value in [3] amounted to 0.333 nM; in [4] it was 0.361 nM; in assay [5], 0.626 nM; in assay [6], 0.712 nM; in assay [7], 0.93 nM; in assay [8] it was 0.888 nM. For the same molecule, in assay [9], the “fold lower binding affinity against comparator antibody QB10985” value is roughly 10 fold.

B3: anti-hTSLP antibody QB11548, humanized clone 135F1 after yeast display (antibody, human IgG4 S228P, kappa, V domains shown)
VH: EVQLVESGGGLVQPGGSLRLSCAASGFDFSSYWISWVRQAPGKGPEWIASIDIDIDIADYASWAKGRFTISRDNSKNTLYLQMNSLRAEDTAVYYCVRNLGLWGPGTLVTVSS
VL: DIQMTQSPSSLSASVGDRVTITCQSSQNVYDKDALAWYQHKPGKRPKLLIYEASRLASGVPSRFSGSGSGTHFTLTISSLQPEDAATYYCAGTRIDNIYTFGGGTKVEIKR
For B3, the “IC50 (nM) for inhibition of CCL17 secretion” value in [10] turned out to be 0.0757 nM; in assay [11], 0.0921 nM; in [12], 0.286 nM; in assay [13], 0.251 nM; in assay [14], 0.464 nM; in assay [15] it was 0.254 nM.

B4: anti-hIL-33 IgG4 antibody QB11465 (antibody)
heavy: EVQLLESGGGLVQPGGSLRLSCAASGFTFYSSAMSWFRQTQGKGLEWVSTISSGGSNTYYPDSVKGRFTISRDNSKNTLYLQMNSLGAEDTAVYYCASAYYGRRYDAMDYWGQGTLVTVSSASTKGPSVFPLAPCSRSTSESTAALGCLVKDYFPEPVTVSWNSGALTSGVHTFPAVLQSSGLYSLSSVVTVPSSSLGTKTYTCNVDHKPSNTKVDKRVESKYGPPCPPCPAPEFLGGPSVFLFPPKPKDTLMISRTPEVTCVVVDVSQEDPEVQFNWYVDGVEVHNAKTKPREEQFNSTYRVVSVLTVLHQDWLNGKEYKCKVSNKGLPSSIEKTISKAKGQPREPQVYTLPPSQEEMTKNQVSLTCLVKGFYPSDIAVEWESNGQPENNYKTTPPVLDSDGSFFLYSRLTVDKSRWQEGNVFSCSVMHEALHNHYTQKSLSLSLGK
light: DVVMTQSPPSLPVTLGQSASISCKSSESLLHSNANTYLYWFQQRPGQSPQLLIYRGSNLASGVPDRFSGSGSGTDFTLKISRVEAEDVGVYYCMQHLRNPYTFGQGTKVEIKRTVAAPSVFIFPPSDEQLKSGTASVVCLLNNFYPREAKVQWKVDNALQSGNSQESVTEQDSKDSTYSLSSTLTLSKADYEKHKVYACEVTHQGLSSPVTKSFNRGEC
notes: also called lead anti-hIL-33 IgG4 antibody
As for B4, the “IC50, inhibition of cyIL-33-induced p38 MAPK phosphorylation in ILC2s (FIG. 17D)” value in assay [16] came out at 4400 pM. Moreover, in [17], the “IC50, inhibition of hIL-33-induced IFNγ secretion from primary human NK cells” value was 1000 pM; the “IC50, inhibition of hIL-33-induced hIL-5 secretion from primary human ILC2 cells” value turned out to be 2390 pM; the “IC50, inhibition of hIL-33-induced p38 MAPK phosphorylation in ILC2s (FIG. 17C)” value was found to be 330 pM; the “IC50, inhibition of hIL-33-induced p38 MAPK phosphorylation in ILC2s (FIG. 17D)” value is 820 pM. Moreover, the “fold improvement of affinity against parental antibody QB11119” value in [18] was roughly 3 fold. In assay [19], this molecule came in with a Kd of 209 pM, a koff of 0.000695 s⁻¹ and a kon of 3.33e+06 M⁻¹ s⁻¹. In addition, in assay [20], binding was put at a Kd of 5140 pM, the koff was determined as 0.00191 s⁻¹ and the kon amounted to 371000 M⁻¹ s⁻¹.

B5: humanized anti-hIL-33 antibody QB11004 (antibody, human IgG1, kappa, V domains shown)
VH: EVQLLESGGGLVQPGGSLRLSCAASGFTFYSSAMSWVRQTQGKGLEWVSTISSGGSNTYYPDSVKGRFTISRDNSKNTLYLQMNSLGAEDTAVYYCASAYYGRRYDAMDYWGQGTLVTVSS
VL: DVVMTQSPPSLPVTLGQSASISCKSSKSLLHSNGNTYLYWFQQRPGQSPQLLIYRMSNLASGVPDRFSGSGSGTDFTLKISRVEAEDVGVYYCMQHLENPYTFGQGTKVEIKR
Usually IC50 stands for the concentration needed to halve the response being measured. A lower IC50 goes with higher potency. In assay [21], B5 registered an IC50 of 927 pM. In assay [19], this molecule had a dissociation constant Kd of 387 pM, a koff of 0.000628 s⁻¹ and a kon of 1.62e+06 M⁻¹ s⁻¹. Moreover, in assay [20], the Kd is 6220 pM, the koff came to 0.000992 s⁻¹ and the kon came out at 160000 M⁻¹ s⁻¹.

B6: anti-hIL-33 antibody QB11119 (antibody, human IgG1, kappa, L234A L235A, V domains shown)
VH: EVQLLESGGGLVQPGGSLRLSCAASGFTFYSSAMSWVRQTQGKGLEWVSTISSGGSNTYYPDSVKGRFTISRDNSKNTLYLQMNSLGAEDTAVYYCASAYYGRRYDAMDYWGQGTLVTVSS
VL: DVVMTQSPPSLPVTLGQSASISCKSSKSLLHSNANTYLYWFQQRPGQSPQLLIYRMSNLASGVPDRFSGSGSGTDFTLKISRVEAEDVGVYYCMQHLENPYTFGQGTKVEIKR
notes: hIgG1 with L234A+L235A+P329A; G29A in the VL against QB11061; also called parental antibody QB11119
As to B6, in assay [19], the Kd came out at 397 pM, the koff stood at 0.000604 s⁻¹ and the kon is 1.52e+06 M⁻¹ s⁻¹. In assay [20], binding was put at a Kd of 15800 pM, the koff came out at 0.00206 s⁻¹ and the kon amounted to 131000 M⁻¹ s⁻¹.

B7: anti-hIL-33 antibody QB11061 (antibody, human IgG1, kappa, V domains shown)
VH: EVQLLESGGGLVQPGGSLRLSCAASGFTFYSSAMSWVRQTPGKGLEWVSTISSGGSNTYYPDSVKGRFTISRDNSKNTLYLQMNSLGAEDTAVYYCASAYYGRRYDAMDYWGQGTLVTVSS
VL: DVVMTQSPPSLPVTLGQSASISCKSSKSLLHSNGNTYLYWFQQRPGQSPQLLIYRMSNLASGVPDRFSGSGSGTDFTLKISRVEAEDVGVYYCMQHLENPYTFGQGTKVEIKR
notes: QB11004 with Q41P in VH-FW2
In [19], B7 returned a dissociation constant (Kd) of 306 pM, a koff of 0.000567 s⁻¹ and an on-rate constant (kon) of 1.85e+06 M⁻¹ s⁻¹. Further, in assay [20], binding was put at a Kd of 4750 pM, the koff was 0.000893 s⁻¹ and the kon was 188000 M⁻¹ s⁻¹.
